Tests used:
[1] = molecular target: T1, human ST2 (hST2, Interleukin-1 receptor-like 1 isoform A) on cells (human, UniProt Q01638 19-556); experiment: cell-based or functional assay
T1 sequence: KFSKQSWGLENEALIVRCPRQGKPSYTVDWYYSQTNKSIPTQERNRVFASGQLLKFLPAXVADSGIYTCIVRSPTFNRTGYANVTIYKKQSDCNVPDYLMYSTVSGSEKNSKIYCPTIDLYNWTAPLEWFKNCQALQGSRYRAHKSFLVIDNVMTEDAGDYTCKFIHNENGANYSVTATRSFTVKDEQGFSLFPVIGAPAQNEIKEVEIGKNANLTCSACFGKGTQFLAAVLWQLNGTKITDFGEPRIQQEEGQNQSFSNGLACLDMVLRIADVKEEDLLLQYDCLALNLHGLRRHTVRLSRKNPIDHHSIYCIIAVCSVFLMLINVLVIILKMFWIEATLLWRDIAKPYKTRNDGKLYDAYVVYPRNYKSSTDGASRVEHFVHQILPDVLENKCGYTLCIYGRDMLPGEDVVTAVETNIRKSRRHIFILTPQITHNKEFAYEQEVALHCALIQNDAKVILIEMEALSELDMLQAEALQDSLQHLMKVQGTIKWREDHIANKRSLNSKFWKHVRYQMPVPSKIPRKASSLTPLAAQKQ

[2] = molecular target: T2, recombinant protein containing hST2 extracellular domain with mouse antibody heavy chain Fc tag (hST2-ECD-mFc) (human); experiment: ELISA, plate coated with hST2-ECD-mFc
T2 construct: Used for SPR and for ELISA of chimeric and humanized antibodies; also called human ST2 antigen
T2 chain: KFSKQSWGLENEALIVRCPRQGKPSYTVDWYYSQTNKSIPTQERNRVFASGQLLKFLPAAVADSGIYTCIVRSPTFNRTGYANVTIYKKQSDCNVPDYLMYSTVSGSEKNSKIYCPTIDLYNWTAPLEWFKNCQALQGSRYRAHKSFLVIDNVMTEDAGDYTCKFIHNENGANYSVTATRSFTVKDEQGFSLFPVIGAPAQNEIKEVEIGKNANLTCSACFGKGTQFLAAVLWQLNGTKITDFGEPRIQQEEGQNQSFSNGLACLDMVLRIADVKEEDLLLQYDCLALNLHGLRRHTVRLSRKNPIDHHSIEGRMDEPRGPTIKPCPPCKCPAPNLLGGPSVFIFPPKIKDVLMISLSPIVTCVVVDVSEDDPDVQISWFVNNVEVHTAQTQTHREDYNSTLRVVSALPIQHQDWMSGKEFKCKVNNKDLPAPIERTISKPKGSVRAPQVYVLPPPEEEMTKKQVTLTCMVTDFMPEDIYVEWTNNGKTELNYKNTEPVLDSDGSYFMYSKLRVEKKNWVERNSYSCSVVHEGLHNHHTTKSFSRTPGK
Description: ST2 binding screening and analysis of antibodies were performed by ELISA using hST2-ECD-mFc (for assays of chimeric and humanized antibodies), hST2-ECD-hFc protein (for assays of hybridoma antibodies) and Cyno-ST2-his (Sino biological, 90915-C08H) as antigens. A high-adsorption 96-well plate (Costar, 9018) was coated with 2 µg/mL hST2-ECD-mFc or Cyno-ST2-his antigen at 100 µL/well and incubated overnight at 4° C. After the antigen not adsorbed was well washed off, the non-specific binding sites were blocked with a blocking buffer (PBS containing 2% bovine serum albumin). After the plate was washed three times with a washing buffer (PBS containing 0.05% (v/v) Tween 20), the anti-ST2 antibodies (serially diluted 3-fold from an initial concentration of 10 nM to 8 concentrations: 3.333 nM, 1.111 nM, 0.370 nM, 0.123 nM, 0.041 nM, 0.014 nM, 0.005 nM, and 0.002 nM) were added at 100 µL/well, and the plate was incubated at room temperature for 1 h. After the plate was washed with the washing buffer, a horseradish peroxidase (HRP)-conjugated secondary antibody was added, and the plate was incubated for another 60 min. After the plate was washed with the washing buffer, the substrate TMB solution (Thermo, 00-4201-56) was added at 100 µL/well, and the plate was incubated at room temperature for 2 min. A stop solution (2 N H₂SO₄) was added at 100 µL/well to terminate the reactions. Colorimetric signals were generated and read at 450 nm using a microplate reader (PE, Envision). The data were analyzed using GraphPad Prism5, and the EC₅₀ values were calculated.

[3] = molecular target: T1, human ST2 (hST2, Interleukin-1 …); experiment: flow cytometry on HEK293T-hST2-NFκB-Luciferase cells
Description: The binding capacity of the anti-ST2 antibodies to hST2-overexpressing cell lines and cyno-ST2-overexpressing cell lines was analyzed using an FACS-based method through binding assays with the hST2 (SEQ ID NO:1)-overexpressing HEK293T cell line (HEK293T-hST2-NFκB-Luciferase) and the cynomolgus monkey ST2 (SEQ ID NO: 10)-overexpressing HEK293T cell line (HEK293T-Cyno-ST2-NFKB-Luciferase). HEK293 cells were transfected with the pLenti6.3- hST2 plasmid and the pLenti6.3-NFκB-luciferasae plasmid using a lentiviral transfection system to construct the cell line HEK293T-hST2-NFκB-Luciferase. HEK293T cells were transfected with the pLenti6.3-cynoST2 plasmid and the pLenti6.3-NFκB-luciferasae plasmid to construct the cell line HEK293T-Cyno-ST2-NFκB-Luciferase.
3 × 10⁵ HEK293T-hST2-NFκB-Luciferase or HEK293T-Cyno-ST2-NFκB-Luciferase cells were added to a 96-well culture plate. Serially diluted anti-ST2 antibodies (serially diluted 4-fold from an initial concentration of 667 nM to 8 concentrations in binding assays with the HEK293T-hST2-NFκB-Luciferase cells; serially diluted 4-fold from an initial concentration of 400 nM to 8 concentrations in binding assays with the HEK293T-Cyno-ST2-NFκB-Luciferase cells) were added to the cell suspensions. After the plate was incubated at room temperature for 60 min, the cells were washed 3 times with PBS. […] The cells were washed 3 times with PBS and resuspended in 100 µ1L of PBS, and then the fluorescence signals were analyzed and detected using a flow cytometer (BD, Accuri C6). The binding capacity of the anti-ST2 antibodies to hST2 and cyno-ST2 on the cell line surfaces was measured in terms of the mean fluorescence intensity (MFI) of staining. The data were analyzed using GraphPad Prism5, and the EC₅₀ values were calculated. The EC₅₀ values for the binding of the anti-ST2 chimeric antibodies to hST2 and Cyno-ST2 at the cellular level are shown in Table 8 and FIGS. 7-8.

B1: RG6149 (antibody Ab2 in CN104334582, prepared in-house) (antibody, human IgG2, kappa, V domains shown)
VH: EVQLVQSGAEVKKPGESLKISCKGSGYSFTNYWIGWVRQMPGKGLEWMGIIYPGNSDTRFSPSFQGQVTISADKSITTAYLQWSSLKASDTAMYYCARHGTSSDYYGLDVWGQGTTVTVSS
VL: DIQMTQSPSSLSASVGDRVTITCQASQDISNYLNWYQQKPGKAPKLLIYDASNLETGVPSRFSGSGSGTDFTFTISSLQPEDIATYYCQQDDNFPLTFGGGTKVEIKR
notes: Control anti-ST2 antibody
B1 was tested, and the “IC50, blocking of the IL33/ST2-induced IL5 secretion on CD4+ T cells (hIL33 plus IL2 co-stimulation)” value (“IC50, blocking” for short) [1] was 1.82 nM, the EC50 [2] was 0.113 nM and the EC50 [3] was 0.589 nM.

B2: GSK3772847 (antibody STLM208 in CN104411333, prepared in-house) (antibody, human IgG2, kappa, V domains shown)
VH: EVQLLESGGGLVQPGGSLRLSCAASGFTFSIYDMIWVRQAPGKGLEWVSSIRGEGGGTYYADSVKGRFTISRDNSKNTLYLQMNSLRAEDTAVYYCARDPWSTEGSFFVLDYWGQGTLVTVSS
VL: EIVLTQSPATLSLSPGERATLSCRASQSVDDDLAWYQQKPGQAPRLLIYDASNRATGIPARFSGSGSGTDFTLTISSLEPEDFAVYYCQQYITAPLTFGQGTKVEIKR
notes: Control anti-ST2 antibody
With B2 the “IC50, blocking” value [1] was 0.794 nM.

B3: Chimeric 31C8 (antibody, human IgG2, kappa, V domains shown)
VH: QVQLQQSGPELVRPGASVTLSCKASGYIFIDSEMHWVKQTPVHGLEWIGAIDPETGDTVYNQKFKGKATLTADKSSSTASMELSSLTSEDSAVYYCTGSTTDYYFAYWGQGTTLTVSS
VL: DIVMTQAAFSNPVTLGTSASISCRSSKSLLHSNGIIYLYWYLQKPGQSPQLLIYQMSNLASGVPDRFSSSGSGTDFTLRISRVEAEDVGVYYCAQNLELPFTFGSGTKLEIKR
notes: also called xi31C8
B3 was tested, and the “IC50, blocking” value [1] was 0.44 nM, the EC50 [2] was 0.184 nM and the EC50 [3] was 0.298 nM.

B4: Chimeric 8F4 (antibody, human IgG2, kappa, V domains shown)
VH: QVQLQQSGAELVRPGASVTLSCKASGHIFTDYEMQWVKQTPVHGLEWIGAFDPETGDTAYNQKFKGKATLTADKSSSTAYMELSSLTSEDSAVYYCSGSTTDYYFAYWGQGTSLTVSS
VL: DVVMTQTAFSNPVTLGTSASISCRSSKSLLHSNGIIYLYWYLQKPGQSPQLLIYQMSNLASGVPDRFSSSGSGTDFTLRISRVEAEDVGVYYCAQNLELPFTFGSGTKLEIKR
notes: also called xi8F4
B4 gave an EC50 [2] of 0.172 nM and an EC50 [3] of 0.343 nM.

B5: Chimeric 26A1 (antibody, human IgG2, kappa, V domains shown)
VH: QVQLQQSGAELVRPGASVTLSCKASDYIFTDSEIHWVKQTLVHGLEWIGAIDPETGDTAYNQKFKGKATLTADKSSSTAYMELSSLTSEGSAVYYCSGSTTDCYFAYWGQGTTLTVSS
VL: DIVMTQAAFSNPVTLGTSASISCRSSKSLLHSNGIIYLYWYLQKPGQSPQLLIYQMSNLASGVPDRFSSSGSGTDFTLRISRVEAEDVGVYYCAQNLELPFTFGSGTKLEIKR
notes: also called xi26A1
Work on B5 yielded an EC50 [2] of 0.175 nM.

B6: Humanized 31C8-1.1 (antibody, human IgG2, kappa, V domains shown)
VH: EVQLVQSGAEVKKPGATVKISCKASGYIFIDSEMHWVQQAPGKGLEWMGAIDPETGDTVYAEKFQGRVTITADKSSSTAYMELSSLRSEDTAVYYCTGSTTDYYFAYWGQGTLVTVSS
VL: DIQMTQSPSSLSASVGDRVTITCRSSKSLLHSNGIIYLYWYQQKPGKAPKLLIYQLSNLASGVPSRFSSSGSGTDFTLTISSLQPEDFATYYCAQNLELPFTFGQGTKVEIKR
notes: also called hz31C8-1.1; hz31C81-1.1
B6 was tested, and the “IC50, blocking” value [1] was 0.462 nM.

B7: Humanized 31C8-1.2 (antibody, human IgG2, kappa, V domains shown)
VH: QVQLVQSGAKVKKPGATVKISCKASGYIFIDSEMHWVQQAPGKGLEWMGAIDPETGDTVYAKKFKGRVTITADKSSSTAYMELSSLRSEDTAVYYCTGSTTDYYFAYWGQGTLVTVSS
VL: DIQMTQSPSSLSASVGDRVTITCRSSKSLLHSNGIIYLYWYQQKPGKAPKLLIYQLSNLASGVPSRFSSSGSGTDFTLTISSLQPEDFATYYCAQNLELPFTFGQGTKVEIKR
notes: also called hz31C8-1.2; hz31C81-1.2
In the case of B7, the “IC50, blocking” value [1] is reported as 0.366 nM.

B8: Chimeric 7D1 (antibody, human IgG2, kappa, V domains shown)
VH: QVQLQQSGAELVRPGASVTLSCKASGYTFTDYEMHWVKQTPVHGLDWIGTIDPETGDTAYNQKFKGRATLTADKSSSTAYMELSSLTSEDSAVYYCTRYSYTNSPYGMDYWGQGTSVTVSS
VL: DVVMTQTPKFLLVSAGDRVTITCKASQSVSNDVAWYQQKPGQSPKLLIYYASNRYTGVPDRFTGSGYGTDFTFTINTVQAEDLAVYFCQQDYSSPYTFGGGTKLEIKR
notes: also called xi7D1
With B8 the EC50 [2] was 0.191 nM and the EC50 [3] was 0.265 nM.

B9: Chimeric 3C6 (antibody, human IgG2, kappa, V domains shown)
VH: QVQLQQSGAEVVRPGASVTLSCKASDYTITDYEMHWVKQTPVHGLEWIGAIDPETGDTAYSQNFKGKATLTADESSSTAYMELSSLTSEDSAVYYCSRSATDYYFASWGQGTTLTVSS
VL: DIVMTQAAISNPVTLGTSASMSCRSSKSLLHSNGITYLYWYLQKPGHSPQLLIYQMSNLASGVPDRFSSSGSGTDFTLKISRVEAEDVGVYYCAQNLELPFTFGSGTKLEIKR
notes: also called xi3C6
With B9 the EC50 [2] was 0.157 nM and the EC50 [3] was 0.349 nM.

B10: Chimeric 17E2 (antibody, human IgG2, kappa, V domains shown)
VH: QVQLQQSGAELVRPGASVTLSCKASGYTFTDYEMHWVKQTPVLGLEWIGAIDPETGDTAYNQKFKGKATLTADKSSSTAYMELSSLASEDSAVYYCIRVDSNYDYFDYWGQDTTLTVSS
VL: DIVLTQSPPILSASPGEKVTMTCRASSSVSYMHWYQQKPGSSPKPWIYDTSNLASGVPARFSGSGSGTSYSLTISRVEAEDAATYYCQQWSSNPLTFGAGTKLELKR
notes: also called xi17E2
In the case of B10, the EC50 [2] is reported as 0.235 nM and the EC50 [3] is reported as 0.224 nM.

Source: patent publication US20230272086A1 (CHIA TAI TIANQING PHARMACEUTICAL GROUP, published 2023)
